Source: publication PMC5603727

Experiments:
[1] = biological target: T1, Roquin-1 ROQ domain (SPR, EMSA wild type) (UniProt Q4VGL6 171-326); test: SPR; 2 mM Mg2+, 10 C; SPR: 10 mM HEPES pH 7.4, 150 mM NaCl, 2 mM MgCl2, 0.005% Tween 20, 10 C, ROQ immobilized; EMSA: 20 mM HEPES pH 7.4, 50 mM NaCl, 1 mM MgCl2, 1 mM DTT, 1 ug/ul BS
T1 sequence: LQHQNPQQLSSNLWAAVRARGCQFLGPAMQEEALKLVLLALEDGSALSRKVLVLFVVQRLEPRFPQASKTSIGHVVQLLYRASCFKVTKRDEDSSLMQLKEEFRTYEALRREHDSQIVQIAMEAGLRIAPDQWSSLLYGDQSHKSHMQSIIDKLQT

Roquin-1 ROQ (171-326) = biological target: T2, Roquin-1 ROQ (171-326) (UniProt Q4VGL6 171-326); test: NMR; 298 K; SPR: 10 mM HEPES pH 7.4, 150 mM NaCl, 2 mM MgCl2, 0.005% Tween 20, 10 C, ROQ immobilized; EMSA: 20 mM HEPES pH 7.4, 50 mM NaCl, 1 mM MgCl2, 1 mM DTT, 1 ug/ul BS
T2 sequence: T1 sequence

Roquin-1 ROQ (147-326) = biological target: T3, Roquin-1 ROQ (147-326) (UniProt Q4VGL6 147-326); test: EMSA; SPR: 10 mM HEPES pH 7.4, 150 mM NaCl, 2 mM MgCl2, 0.005% Tween 20, 10 C, ROQ immobilized; EMSA: 20 mM HEPES pH 7.4, 50 mM NaCl, 1 mM MgCl2, 1 mM DTT, 1 ug/ul BS
T3 sequence: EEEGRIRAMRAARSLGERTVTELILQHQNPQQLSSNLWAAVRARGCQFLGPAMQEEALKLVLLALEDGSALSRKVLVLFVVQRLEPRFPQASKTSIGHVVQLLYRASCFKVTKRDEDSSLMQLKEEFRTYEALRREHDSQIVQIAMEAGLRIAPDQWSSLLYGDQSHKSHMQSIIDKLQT

Roquin-1 N-term = biological target: T4, Roquin-1 N-term (UniProt Q4VGL6 2-440); test: as above
T4 sequence: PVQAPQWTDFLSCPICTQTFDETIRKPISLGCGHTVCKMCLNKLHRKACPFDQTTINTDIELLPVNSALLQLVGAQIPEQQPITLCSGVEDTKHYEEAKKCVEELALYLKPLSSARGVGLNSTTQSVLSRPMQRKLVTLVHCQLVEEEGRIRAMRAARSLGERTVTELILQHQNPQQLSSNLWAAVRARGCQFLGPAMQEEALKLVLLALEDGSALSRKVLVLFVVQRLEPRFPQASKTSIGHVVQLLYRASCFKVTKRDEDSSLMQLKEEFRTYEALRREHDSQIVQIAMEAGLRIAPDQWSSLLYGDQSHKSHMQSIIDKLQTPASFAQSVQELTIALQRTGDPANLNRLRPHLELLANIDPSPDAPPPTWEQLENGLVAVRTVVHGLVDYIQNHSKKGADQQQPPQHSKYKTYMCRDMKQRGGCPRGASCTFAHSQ

ACAUGUUUUCUGUGAAAACGGAG (structured_RNA) [Tnf CDE SL]
Kd [1]: 42 ± 19 nM

UCCACACCCUUCUAGGUGCUGG (structured_RNA) [Ox40 ADE-like Mut2 (G9C)]
binding result [1]: no binding

UGACUGCGUUUUAGGAGUUA (structured_RNA) [SELEX-derived ADE SL]
binding result (Roquin-1 ROQ (171-326)): binds

UCCACACCGUACGAGGUGCUGG (structured_RNA) [Ox40 ADE-like Mut3 (U11A,U13G)]
binding result [1]: no binding

UCCACACAGUUCUAUGUGCUGG (structured_RNA) [Ox40 ADE-like Mut4 (C8A,G15U)]
Kd [1]: 234 ± 63 nM

UCCACACCGUUCUAGGUGCUGG (structured_RNA) [Ox40 ADE-like SL]
Kd [1]: 81 ± 22 nM

CUAUGUAUGCUAUGCAUACUACC (structured_RNA) [Ox40 CDE-like SL]
binding result (Roquin-1 ROQ (147-326)): binds | binding result (Roquin-1 N-term): binds
